Measured values as given in patent US20080004355A1, “Method for Inhibiting Telomerase Activity and an Agent for Inhibiting the Same” (priority 2004, published 2008).
Peptide text beside a SMILES is read from it. * marks the point of attachment. Cbz = O=C(OCc1ccccc1)*

Legend:
TERT = experiment: Effect of proteasome inhibitor on amount of intracellular TERT (transient TERT expression, Western blotting); type: cell-based, human; details: HEK293T cells transfected with pCIneo-TERT; final concentration 25 μM, 24 hours; compared with DMSO control; Western blotting with anti-TERT antibodies
Source text: NEDD8 is a ubiquitin-like protein, and is known to covalently conjugate to proteins for post translational modification of proteins. Only a cullin family protein, which is one of the subunits of a ubiquitin ligase complex, has been reported as a protein that undergoes NEDD8 conjugation (Non-patent References 5 and 6). […] NEDD8 has a significant homology with ubiquitin at the level of both primary structure and tertiary structure. Therefore, it is plausible that NEDD8 conjugation to proteins works as a signal for proteasome-dependent protein degradation (Non-patent Reference 5), similar to ubiquitination. Thus, it can be reasoned, that there exists a regulatory system for TERT degradation via modification by NEDD8 conjugation to TERT and NEDD8 deconjugation by USP21. Accordingly, an investigation was conducted to determine whether TERT may undergo proteasome-dependent degradation. […]
8×10^4 cells/well of HEK293T cells were cultured overnight at 37° C. under the atmosphere of 5% CO2 in 12 well plates, and then transfected with 1 μg of pCIneo-TERT using FuGENE6 Transfection Reagent (Roche). […] Further, β-tubulin, an internal control protein in the cell lysates, was detected by Western blotting using anti-β-tubulin (H-235) antibodies (Santa Cruz). […]

[1] = molecular target: TERT modified with one or more FLAG-NEDD8 molecules (NEDD8-conjugated TERT)
[2] = molecular target: T1, N-terminal FLAG-tagged TERT (human, UniProt O14746 1-1132); experiment: co-expression in HEK293T cells, immunoprecipitation with anti-HA agarose, Western blot with anti-FLAG
T1 construct: Expressed transiently in HEK293T cells from pCI-FLAG-TERT (human TERT cDNA cloned from human thymus cDNA); present in the cell lysate; also called FLAG-TERT
Method: 4×10⁵ HEK293T cells were cultured overnight at 37° C. under the atmosphere of 5% CO₂ in a dish with 60 mm diameter, and then transfected with 2 μg of pCI-FLAG-TERT alone or in combination with 2 μg of pCI-HA-USP21 or pCI-HA-NEDD8, using FuGENE6 Transfection Reagent (Roche). After 2 days of culturing, the cells were collected and suspended in 500 μl of cell lysis buffer (20 mM Tris-HCl, pH7.4/150 mM NaCl/1 mM ethylenediaminetetraacetic acid (EDTA)/1 mM ethylene glycol-bis-tetraacetic acid (EGTA)/1% Triton X-100/2.5 mM sodium pyrophsphate/1 mM β-glycerophsphate/1 mM Na₃VO₄/protease inhibitor cocktail), and then left to stand on ice for 20 minutes. Subsequently, centrifugation was conducted at 4° C. for 10 minutes at 14,000 rpm to collect the supernatants. The supernatants that were collected were used as cell lysates. […] The resulting supernatant was added to 10 μl of anti-HA antibody-conjugated agarose (anti-HA(Y-11)-agaraose, Santa cruz), and then subjected to overturned mixing at 4° C. overnight, followed by centrifugation to collect the beads. The beads were washed with the cell lysis buffer four times, and then added with 30 μl of 2× SDS sample buffer (125 mM Tris HCl, pH 6.8/4% sodium dodecylsulphate (SDS)/20% glycerol/0.01% bromophenol blue). […]

T1 sequence (O14746 whole entry): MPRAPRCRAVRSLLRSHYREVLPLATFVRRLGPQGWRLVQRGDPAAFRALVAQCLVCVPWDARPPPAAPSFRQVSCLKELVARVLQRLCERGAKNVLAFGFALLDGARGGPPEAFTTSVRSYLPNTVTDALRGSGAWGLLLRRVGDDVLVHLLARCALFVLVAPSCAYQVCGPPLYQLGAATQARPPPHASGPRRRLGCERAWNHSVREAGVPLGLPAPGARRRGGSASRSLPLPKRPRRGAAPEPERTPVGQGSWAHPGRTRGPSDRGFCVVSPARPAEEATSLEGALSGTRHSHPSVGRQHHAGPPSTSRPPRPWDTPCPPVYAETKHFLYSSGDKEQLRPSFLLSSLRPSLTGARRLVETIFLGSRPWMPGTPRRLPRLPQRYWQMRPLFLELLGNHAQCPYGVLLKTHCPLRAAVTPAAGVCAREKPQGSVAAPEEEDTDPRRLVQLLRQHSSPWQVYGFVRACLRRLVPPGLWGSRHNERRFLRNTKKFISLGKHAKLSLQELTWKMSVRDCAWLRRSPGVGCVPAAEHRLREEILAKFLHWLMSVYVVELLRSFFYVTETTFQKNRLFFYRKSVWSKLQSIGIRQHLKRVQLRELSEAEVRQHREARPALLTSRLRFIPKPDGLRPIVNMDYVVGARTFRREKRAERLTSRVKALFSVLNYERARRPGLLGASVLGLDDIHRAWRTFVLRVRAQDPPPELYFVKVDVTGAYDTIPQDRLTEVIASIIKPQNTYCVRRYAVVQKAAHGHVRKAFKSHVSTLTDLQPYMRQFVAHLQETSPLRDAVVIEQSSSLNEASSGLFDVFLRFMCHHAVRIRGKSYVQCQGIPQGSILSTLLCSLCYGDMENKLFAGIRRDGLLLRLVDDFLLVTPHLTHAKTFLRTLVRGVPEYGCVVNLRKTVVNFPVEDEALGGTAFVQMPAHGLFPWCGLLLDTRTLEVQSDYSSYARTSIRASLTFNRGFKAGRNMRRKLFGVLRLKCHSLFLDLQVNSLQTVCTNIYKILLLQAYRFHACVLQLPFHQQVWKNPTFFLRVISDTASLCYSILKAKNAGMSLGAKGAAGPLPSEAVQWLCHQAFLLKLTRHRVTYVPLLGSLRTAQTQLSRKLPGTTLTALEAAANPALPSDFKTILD

binding result [2] | Molecule | amount of TERT in cell lysate (TERT) | smear-like signals in a high molecular region indicating TERT modified with one or more FLAG-NEDD8 molecules (IP anti-TERT, Western blot anti-FLAG) [1]
– | CC(C)C[C@@H](C=O)NC(=O)[C@H](CC(C)C)NC(=O)[C@H](CC(C)C)NC(=O)OCc1ccccc1 [MG132] (Cbz-Leu-Leu-Leu-aldehyde) | increased amount of TERT | –
binds | N-terminal HA-tagged USP21 (enzyme, not shown: small tags and cut ends, Expressed transiently in HEK293T cells from pCI-HA-USP21 (human USP21 cDNA cloned from human kidney cDNA); also called HA-USP21) MPQASEHRLGRTREPPVNIQPRVGSKLPFAPRARSKERRNPASGPNPMLRPLPPRPGLPDERLKKLELGRGRTSGPRPRGPLRADHGVPLPGSPPPTVALPLPSRTNLARSKSVSSGDLRPMGIALGGHRGTGELGAALSRLALRPEPPTLRRSTSLRRLGGFPGPPTLFSIRTEPPASHGSFHMISARSSEPFYSDDKMAHHTLLLGSGHVGLRNLGNTCFLNAVLQCLSSTRPLRDFCLRRDFRQEVPGGGRAQELTEAFADVIGALWHPDSCEAVNPTRFRAVFQKYVPSFSGYSQQDAQEFLKLLMERLHLEINRRGRRAPPILANGPVPSPPRRGGALLEEPELSDDDRANLMWKRYLEREDSKIVDLFVGQLKSCLKCQACGYRSTTFEVFCDLSLPIPKKGFAGGKVSLRDCFNLFTKEEELESENAPVCDRCRQKTRSTKKLTVQRFPRILVLHLNRFSASRGSIKKSSVGVDFPLQRLSLGDFASDKAGSPVYQLYALCNHSGSVHYGHYTALCRCQTGWHVYNDSRVSPVSENQVASSEGYVLFYQLMQEPPRCL | – | significantly decreased by co-expression of HA-USP21
– | N-terminal HA-tagged inactive USP21 (protein) MPQASEHRLGRTREPPVNIQPRVGSKLPFAPRARSKERRNPASGPNPMLRPLPPRPGLPDERLKKLELGRGRTSGPRPRGPLRADHGVPLPGSPPPTVALPLPSRTNLARSKSVSSGDLRPMGIALGGHRGTGELGAALSRLALRPEPPTLRRSTSLRRLGGFPGPPTLFSIRTEPPASHGSFHMISARSSEPFYSDDKMAHHTLLLGSGHVGLRNLGNTAFLNAVLQCLSSTRPLRDFCLRRDFRQEVPGGGRAQELTEAFADVIGALWHPDSCEAVNPTRFRAVFQKYVPSFSGYSQQDAQEFLKLLMERLHLEINRRGRRAPPILANGPVPSPPRRGGALLEEPELSDDDRANLMWKRYLEREDSKIVDLFVGQLKSCLKCQACGYRSTTFEVFCDLSLPIPKKGFAGGKVSLRDCFNLFTKEEELESENAPVCDRCRQKTRSTKKLTVQRFPRILVLHLNRFSASRGSIKKSSVGVDFPLQRLSLGDFASDKAGSPVYQLYALCNHSGSVHYGHYTALCRCQTGWHVYNDSRVSPVSENQVASSEGYVLFYQLMQEPPRCL | – | Such decrease of the signals was not observed when co-expressing the inactive USP21, HA-USP21C221A, instead of HA-USP21
